This experiment has as its target T1, vascular endothelial growth factor receptor 2 (UniProt P35968 20-764).
T1 construct: VEGFR2 (vascular endothelial growth factor receptor 2); probably a bought recombinant protein (surmise); also called VEGFR2; VEGFR-2
As to the kind of experiment: SPR; Biacore S200; ASP-3 immobilised on a CM5 chip (NHS/EDC activation); VEGFR2 at 100, 50, 25, 12.5, 6.25 and 3.125 nM flowed over for 180 s at 10 μL/min; running buffer HBS-EP+; reference channel subtracted. Conditions: both partners purified.

For orientation: Kd means the free concentration of one partner at which half of the binding sites on the other are occupied at equilibrium, for simple one-to-one binding. A lower Kd goes with higher affinity.

T1 sequence (P35968 20-764): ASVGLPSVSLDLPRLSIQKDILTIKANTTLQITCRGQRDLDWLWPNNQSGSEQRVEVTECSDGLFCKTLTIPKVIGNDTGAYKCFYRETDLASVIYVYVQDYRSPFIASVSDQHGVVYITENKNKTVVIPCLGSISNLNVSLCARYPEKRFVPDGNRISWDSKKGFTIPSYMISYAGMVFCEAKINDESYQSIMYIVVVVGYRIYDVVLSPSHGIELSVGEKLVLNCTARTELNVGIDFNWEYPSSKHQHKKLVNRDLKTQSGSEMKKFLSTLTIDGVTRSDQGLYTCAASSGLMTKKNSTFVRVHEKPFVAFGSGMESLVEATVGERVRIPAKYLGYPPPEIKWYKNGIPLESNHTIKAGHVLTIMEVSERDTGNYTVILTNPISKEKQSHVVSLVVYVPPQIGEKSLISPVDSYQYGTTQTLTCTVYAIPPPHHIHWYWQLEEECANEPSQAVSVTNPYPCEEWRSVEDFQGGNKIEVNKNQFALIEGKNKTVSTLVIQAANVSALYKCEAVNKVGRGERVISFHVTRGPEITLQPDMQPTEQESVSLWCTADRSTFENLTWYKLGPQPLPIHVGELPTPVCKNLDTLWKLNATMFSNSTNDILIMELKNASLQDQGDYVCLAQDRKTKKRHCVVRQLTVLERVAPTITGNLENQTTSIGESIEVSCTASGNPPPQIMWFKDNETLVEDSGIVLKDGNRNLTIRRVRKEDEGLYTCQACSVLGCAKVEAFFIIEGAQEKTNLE

B1: ASP-3 (natural protein, Arca subcrenata)
chain: MDYLTSKWKLWFHSLDVNHDGKISFEDVEESRNKFTDLHKLLGDKASGVKVDMESWWNTYIFKASGGGELSEEMFIKSNTDRYNKDKAAFLNDIQKCFNMIFDVIDTNKDRSIELNEFIYAFKAFGHENEGLVTKAFELLEPKEGLVPLRDIVNAWVSFVTSTDQSKPDAIKQAFDAGF
notes: ASP-3, Arca subcrenata Lischke, 179 amino acids, 20.6 kDa; Native protein isolated from the animal; also called Arca subcrenata protein; cds.c115914_g1_i1
The molecule B1 had a Kd of 39.9 nM.

Source of the values: paper PMC6780846, “Identification and Characterization of a Novel Protein ASP-3 Purified from Arca subcrenata and Its Antitumor Mechanism” (Marine Drugs, 2019).
